Assay results from publication PMC4887914, “The Sp1-mediaded allelic regulation of MMP13 expression by an ESCC susceptibility SNP rs2252070”.

Molecular target: Sp1 (UniProt P08047 2-785)
Assay: EMSA; recombinant Sp1; supershift with Sp1 antibody; LightShift Chemiluminescent EMSA kit (Pierce), 25 °C, 20 min, 6% PAGE; 100-fold unlabeled competitor; buffer, salt and pH not stated
Settings: protein: commercial; label: 3' biotin; blunt

Chain of Sp1 (P08047 2-785): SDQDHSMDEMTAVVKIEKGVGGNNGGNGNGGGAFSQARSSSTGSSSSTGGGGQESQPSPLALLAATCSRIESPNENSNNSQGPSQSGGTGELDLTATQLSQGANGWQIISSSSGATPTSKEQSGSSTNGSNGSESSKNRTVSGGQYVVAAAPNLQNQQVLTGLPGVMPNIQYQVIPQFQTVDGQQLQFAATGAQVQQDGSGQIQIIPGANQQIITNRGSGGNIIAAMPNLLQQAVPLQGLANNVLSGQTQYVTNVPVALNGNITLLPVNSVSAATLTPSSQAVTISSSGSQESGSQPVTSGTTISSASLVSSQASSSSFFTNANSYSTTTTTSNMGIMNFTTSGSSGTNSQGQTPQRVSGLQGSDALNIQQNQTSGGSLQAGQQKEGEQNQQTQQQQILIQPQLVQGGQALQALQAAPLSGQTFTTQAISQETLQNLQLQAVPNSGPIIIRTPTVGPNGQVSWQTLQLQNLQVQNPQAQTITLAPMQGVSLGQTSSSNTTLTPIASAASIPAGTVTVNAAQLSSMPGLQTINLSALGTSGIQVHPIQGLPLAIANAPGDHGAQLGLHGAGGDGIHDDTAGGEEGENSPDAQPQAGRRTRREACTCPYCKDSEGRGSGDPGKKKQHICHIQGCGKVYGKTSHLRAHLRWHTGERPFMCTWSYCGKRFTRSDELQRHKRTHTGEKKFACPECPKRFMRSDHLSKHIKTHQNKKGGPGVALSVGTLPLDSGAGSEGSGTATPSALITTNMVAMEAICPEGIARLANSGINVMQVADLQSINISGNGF

B1: MMP13 rs2252070G probe (dsDNA)
DNA 1: CCTTCAAGTGACTGGGAAGTGGAAACCT
DNA 2: AGGTTTCCACTTCCCAGTCACTTGAAGG
B1: binds.
